Drawing on the supplement of paper PMC9732359, this text covers protein stability index for 25 sequences.

± gives the uncertainty stated by the source.

This data set can be described thus: protein stability index of a GFP-peptide fusion (yeast GPS) (PSI 1-4); higher = more stable; sorted into four equal gates, so the index is relative within each strain. Put shortly: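 Tiled 17-residue yeast protein peptides were fused downstream of GFP in a plasmid that also expresses Cherry, and the pooled library was carried in yeast. Mid-log cultures in leucine-free medium were sorted into four equal gates by GFP/Cherry fluorescence ratio, and plasmids from each gate were PCR-amplified and Illumina-sequenced, with reads assigned to strains by barcodes. The protein stability index for each peptide was each gate's read frequency times its gate number, summed.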

Turning to PTKTLTTKERKKSRLGN [PRP8], the protein stability index came out at 2.33 ± 0.079 (doa10∆), 2.26 ± 0.072 (pdr5∆), 2.91 ± 0.094 (san1∆) and 2.62 ± 0.056 (ubr1∆).
For KNKDSLVSNPHEIYGSM [SRB4], the protein stability index by setting is: (doa10∆) 3.04 ± 0.084; (pdr5∆) 3.09 ± 0.09; (san1∆) 2.96 ± 0.07; (ubr1∆) 3.26 ± 0.14.
As to LERYYKEQADIYAKQQE [ARP7], the protein stability index is 3.29 ± 0.29 (doa10∆) and 3.42 ± 0.14 (ubr1∆).
Take TIEVLDEVITEGQADID [POP7]: the protein stability index is 2.94 ± 0.064 (doa10∆), 3.1 ± 0.061 (pdr5∆), 3.06 ± 0.072 (san1∆) and 3.07 ± 0.049 (ubr1∆).
On the same counts, the results for NWAKFTATASLGVIHKG [RPN2] are 1.81 ± 0.06, 1.81 ± 0.053, 1.91 ± 0.069 and 2 ± 0.061.
Taken in the same sequence, the figures for KESDDPSIPLVIIRRLK [POP1] were 3.12 ± 0.1, 2.07 ± 0.064, 3.06 ± 0.068 and 3.05 ± 0.093.
Taken in the same sequence, the figures for NKAQAKMDKRAKNSDSA [RPL8A] were 3.43 ± 0.094, 3.38 ± 0.11, 3.27 ± 0.047 and 3.54 ± 0.067.
With VKPQYDEIHIPAPSKPV [BRR2], the protein stability index is, setting by setting: (doa10∆) 2.59 ± 0.097; (pdr5∆) 2.59 ± 0.12; (san1∆) 2.41 ± 0.084; (ubr1∆) 1.83 ± 0.093.
On the same counts, the results for ELAQYMKTNVHTQANEP [RGR1] are 2.81 ± 0.081, 2.99 ± 0.086, 2.75 ± 0.064 and 2.75 ± 0.068.
In turn, SLEQRQEVTKFAKANIG [RPN4] had a protein stability index (doa10∆) of 2.82 ± 0.15, a protein stability index (pdr5∆) of 2.98 ± 0.24 and a protein stability index (san1∆) of 2.83 ± 0.11.
VEYKLTFVPTNSDKPRD [DIS3]: the protein stability index is, setting by setting: (doa10∆) 1.21 ± 0.14; (pdr5∆) 1.31 ± 0.094; (san1∆) 1.19 ± 0.24; (ubr1∆) 1.05 ± 0.11.
Taken in the same sequence, the figures for AVKDQQKYTKEMIDSHI [SNF2] were 2.8 ± 0.062, 2.68 ± 0.051, 2.38 ± 0.068 and 2.95 ± 0.043.
Taken in the same sequence, the figures for QQLAYDLSISALLGDKI [RPN9] were 2.4 ± 0.052, 2.67 ± 0.058, 2.47 ± 0.075 and 2.15 ± 0.064.
The sequence LGKCSRITDASLFQLSK [GRR1] showed a protein stability index (doa10∆) of 3.04 ± 0.11, a protein stability index (pdr5∆) of 3.14 ± 0.11, a protein stability index (san1∆) of 3.14 ± 0.093 and a protein stability index (ubr1∆) of 2.88 ± 0.063.
Turning to KNGAQDLVLQILEDTAT [RRI2], the protein stability index by setting is: (doa10∆) 3.37 ± 0.08; (pdr5∆) 3.3 ± 0.095; (san1∆) 3.33 ± 0.054; (ubr1∆) 3.18 ± 0.072.
ENSIGYNNRKCWPKDSR [PRP8] yielded a protein stability index (doa10∆) of 3.08 ± 0.16, a protein stability index (pdr5∆) of 2.95 ± 0.18 and a protein stability index (ubr1∆) of 2.87 ± 0.29.
As for IGQAVQPKRNLSRYVKW [RPL8A], the protein stability index runs as follows: (doa10∆) 2.69 ± 0.065; (pdr5∆) 2.97 ± 0.043; (san1∆) 2.72 ± 0.047; (ubr1∆) 2.66 ± 0.047.
On the same counts, the results for PFLHLRKKTPAGDWKYD [FAS2] are 3.2 ± 0.29, 3.32 ± 0.2, 2.54 ± 0.24 and 3.08 ± 0.21.
Taken in the same sequence, the figures for GVEEEEELKDSEINEIL [SNF2] were 3.14 ± 0.16, 3.33 ± 0.11, 2.31 ± 0.12 and 2.72 ± 0.075.
Taken in the same sequence, the figures for DQITKMKDRLVEWNDQV [RPN9] were 3.35 ± 0.12, 3.05 ± 0.099, 3.43 ± 0.079 and 3.29 ± 0.079.
For the sequence LVALSNEPAARLGSEAD [FAS2], the protein stability index turned out to be 3.44 ± 0.082 (doa10∆), 3.37 ± 0.073 (pdr5∆), 3.45 ± 0.054 (san1∆) and 3.32 ± 0.092 (ubr1∆).
Taken in the same sequence, the figures for FRTVKEMVKDRGYFITQ [RPB5] were 2.52 ± 0.069, 2.08 ± 0.071, 1.72 ± 0.065 and 2.08 ± 0.041.
On the same counts, the results for EKSDALVGVYRQQQENS [SMC1] are 3.25 ± 0.13, 3.37 ± 0.098, 3.41 ± 0.12 and 2.85 ± 0.096.
On the same counts, the results for TQAKKLYHHTTKTILSG [SRP72] are 3.17 ± 0.069, 2.86 ± 0.051, 2.49 ± 0.098 and 3.26 ± 0.046.
VRNVKGPVRENDILVLM [RPS28A] returned a protein stability index (doa10∆) of 3.24 ± 0.11, a protein stability index (pdr5∆) of 3.04 ± 0.1, a protein stability index (san1∆) of 3.5 ± 0.13 and a protein stability index (ubr1∆) of 2.98 ± 0.074.
